Test results reported in patent publication US20200292536A1.

How the values were obtained:
[1] = target: BCL2 peptide Ac-…-amide (amino acids 41-54 of human BCL2 with linkers) (human); assay: imaging mass cytometry; peptide 2.50E-07 M in core (second core); Ab 1 ug/ml
[2] = target: BCL2 peptide Ac-…-amide (amino acids 41-54 of human BCL2 with linkers) (human); assay: imaging mass cytometry; peptide 2.50E-06 M in core; Ab 1 ug/ml
[3] = target: BCL2 peptide Ac-…-amide (amino acids 41-54 of human BCL2 with linkers) (human); assay: imaging mass cytometry; peptide 2.50E-07 M in core
[4] = target: BCL2 peptide Ac-…-amide (amino acids 41-54 of human BCL2 with linkers) (human); assay: imaging mass cytometry; peptide 2.50E-08 M in core; Ab 5 ug/ml
[5] = target: BCL2 peptide Ac-…-amide (amino acids 41-54 of human BCL2 with linkers) (human); assay: imaging mass cytometry; peptide 2.50E-05 M in core; Ab 10 ug/ml
[6] = target: BCL2 peptide Ac-…-amide (amino acids 41-54 of human BCL2 with linkers) (human); assay: imaging mass cytometry; peptide 2.50E-04 M in core; Ab 10 ug/ml
[7] = target: Bovine serum albumin (BSA; Ultra Pure) (bovine) (UniProt P02769); assay: imaging mass cytometry; no peptide (background core); Ab 10 ug/ml
[8] = target: Bovine serum albumin (BSA; Ultra Pure) (bovine) (UniProt P02769); assay: imaging mass cytometry; no peptide (second background core); Ab 1 ug/ml
[9] = target: BCL2 peptide Ac-…-amide (amino acids 41-54 of human BCL2 with linkers) (human); assay: imaging mass cytometry; peptide 2.50E-04 M in core; Ab 5 ug/ml
[10] = target: BCL2 peptide Ac-…-amide (amino acids 41-54 of human BCL2 with linkers) (human); assay: imaging mass cytometry; peptide 2.50E-04 M in core (second core); Ab 5 ug/ml
[11] = target: BCL2 peptide Ac-…-amide (amino acids 41-54 of human BCL2 with linkers) (human); assay: imaging mass cytometry; peptide 2.50E-04 M in core (second core); Ab 1 ug/ml

Sequence of BCL2 peptide Ac-…-amide (amino acids 41-54 of human BCL2 with linkers) (human) (peptide, as listed by the source): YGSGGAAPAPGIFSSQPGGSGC
Sequence of UniProt P02769 (P02769 25-607 limits assumed): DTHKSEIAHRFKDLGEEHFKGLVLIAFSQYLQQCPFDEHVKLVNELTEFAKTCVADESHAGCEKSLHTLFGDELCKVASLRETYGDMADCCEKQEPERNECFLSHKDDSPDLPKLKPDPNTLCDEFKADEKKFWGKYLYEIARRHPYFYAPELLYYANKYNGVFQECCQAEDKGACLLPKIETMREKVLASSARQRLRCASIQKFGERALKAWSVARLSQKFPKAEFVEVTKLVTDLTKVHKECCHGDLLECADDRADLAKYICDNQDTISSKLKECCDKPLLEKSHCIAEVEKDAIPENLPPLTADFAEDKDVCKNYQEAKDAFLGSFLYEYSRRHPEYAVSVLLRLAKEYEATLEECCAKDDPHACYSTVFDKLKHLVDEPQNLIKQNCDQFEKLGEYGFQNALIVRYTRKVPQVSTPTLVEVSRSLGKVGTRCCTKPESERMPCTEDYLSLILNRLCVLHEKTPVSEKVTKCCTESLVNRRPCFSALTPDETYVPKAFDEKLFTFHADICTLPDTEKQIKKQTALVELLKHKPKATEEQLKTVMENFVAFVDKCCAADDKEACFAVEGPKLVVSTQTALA

Fluidigm EPR17509-^146Nd antibody
Integrated Ion counts (per 150 micron square ROI) [1]: 2380 ion counts
Integrated Ion counts (per 150 micron square ROI) [2]: 7750 ion counts
Average Ion count [3]: 1740 ion counts
Ion count above background [3]: 562 ion counts
Moles ^146Nd Ab detected per ROI [3]: 3.15e-19 mol
^146Nd Ab/peptide [3]: 1.4%
Integrated Ion counts (per 150 micron square ROI) [4]: 976 ion counts
Integrated Ion counts (per 150 micron square ROI) [5]: 39300 ion counts
Integrated Ion counts (per 150 micron square ROI) [6]: 87400 ion counts
Integrated Ion counts (per 150 micron square ROI) [7]: 979 ion counts
Integrated Ion counts (per 150 micron square ROI) [8]: 1310 ion counts
Integrated Ion counts (per 150 micron square ROI) [9]: 35300 ion counts
Integrated Ion counts (per 150 micron square ROI) [10]: 37400 ion counts
Integrated Ion counts (per 150 micron square ROI) [11]: 42200 ion counts
